Five sequences from the supplement of paper PMC5998384 can be followed below.

The test system of data set [1] is HeLa Kyoto. The data set can be described thus: thermal stability score vs G1/S (z-score of summed log2 fold changes over temperatures); higher = more thermally stable than in G1/S.
The test system of data set [2] is HeLa Kyoto. The data set can be described thus: solubility change mitosis vs G1/S (difference of NP-40 vs SDS log2 ratios) (log2 ratio difference); higher = more soluble in mitosis.
For data set [3], the system named is HeLa Kyoto. The data set can be described thus: melting temperature (median over replicates), in situ; higher = more thermally stable.
For data set [4], the system named is HeLa Kyoto. The data set can be described thus: solubility in G1/S (NP-40 vs SDS abundance) (log2 ratio); higher = more soluble. To be noted: cell cycle stage: G1/S.
Setting [5] is: cell cycle stage: early G1 (4.5 h after nocodazole release).
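Throughout, for melting temperature (median over replicates), in situ: HeLa Kyoto cells synchronized by double thymidine or nocodazole block, proteins quantified by TMT10plex mass spectrometry, three independent biological replicates.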
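Throughout, for solubility change mitosis vs G1/S (difference of NP-40 vs SDS log2 ratios): synchronized HeLa Kyoto cells (double thymidine block for G1/S, nocodazole release for mitosis), protein amounts in NP-40 versus SDS lysates quantified by mass spectrometry, three biological replicates.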
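Throughout, for solubility in G1/S (NP-40 vs SDS abundance): HeLa Kyoto cells arrested at G1/S by double thymidine block, proteins quantified by TMT10plex mass spectrometry in mild NP-40 versus SDS extracts, three biological replicates.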
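Throughout, for thermal stability score vs G1/S (z-score of summed log2 fold changes over temperatures): synchronized HeLa Kyoto cells, proteins quantified by TMT10plex mass spectrometry, three biological replicates, mitosis taken 0.5 h after nocodazole release, G1/S directly after double thymidine block.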

For the sequence “MAGTSAPGSKRRSEPPAPRPGPPPGTGHPPSKRARGFSAAAAPDPDDPFGAHGDFTADDLEELDTLASQALSQCPAAARDVSSDHKVHRLLDGMSKNPSGKNRETVPIKDNFELEVLQAQYKELKEKMKVMEEEVLIKNGEIKILRDSLHQTESVLEEQRRSHFLLEQEKTQALSDKEKEFSKKLQSLQSELQFKDAEMNELRTKLQTSERANKLAAPSVSHVSPRKNPSVVIKPEACSPQFGKTSFPTKESFSANMSLPHPCQTESGYKPLVGREDSKPHSLRGDSIKQEEAQKSFVDSWRQRSNTQGSILINLLLKQPLIPGSSLSLCHLLSSSSESPAGTPLQPPGFGSTLAGMSGLRTTGSYDGSFSLSALREAQNLAFTGLNLVARNECSRDGDPAEGGRRAFPLCQLPGAVHFLPLVQFFIGLHCQALQDLAAAKRSGAPGDSPTHSSCVSSGVETNPEDSVCILEGFSVTALSILQHLVCHSGAVVSLLLSGVGADSAAGEGNRSLVHRLSDGDMTSALRGVADDQGQHPLLKMLLHLLAFSSAATGHLQASVLTQCLKVLVKLAENTSCDFLPRFQCVFQVLPKCLSPETPLPSVLLAVELLSLLADHDQLAPQLCSHSEGCLLLLLYMYITSRPDRVALETQWLQLEQEVVWLLAKLGVQSPLPPVTGSNCQCNVEVVRALTVMLHRQWLTVRRAGGPPRTDQQRRTVRCLRDTVLLLHGLSQKDKLFMMHCVEVLHQFDQVMPGVSMLIRGLPDVTDCEEAALDDLCAAETDVEDPEVECG [ATRIP]”, the thermal stability score came out at 0.257 in the data set with HeLa Kyoto [1] (setting [5]) and 0.455 in the data set on HeLa Kyoto [1] (cell cycle stage: mitosis). In addition, the “solubility change mitosis (log2)” value in the data set with HeLa Kyoto [2] is 0.065. Moreover, the melting temperature with HeLa Kyoto [3] (cell cycle stage: G1/S) amounted to 50.9 °C; with HeLa Kyoto [3] (cell cycle stage: mitosis) it was 51.5 °C. Besides, in the data set with HeLa Kyoto [4], the “solubility in G1/S (log2)” value was determined as 0.243.

As for “MAGVACLGKAADADEWCDSGLGSLGPDAAAPGGPGLGAELGPGLSWAPLVFGYVTEDGDTALHLAVIHQHEPFLDFLLGFSAGTEYMDLQNDLGQTALHLAAILGETSTVEKLYAAGAGLCVAERRGHTALHLACRVGAHACARALLQPRPRRPREAPDTYLAQGPDRTPDTNHTPVALYPDSDLEKEEEESEEDWKLQLEAENYEGHTPLHVAVIHKDVEMVRLLRDAGADLDKPEPTCGRSPLHLAVEAQAADVLELLLRAGANPAARMYGGRTPLGSAMLRPNPILARLLRAHGAPEPEGEDEKSGPCSSSSDSDSGDEGDEYDDIVVHSSRSQTRLPPTPASKPLPDDPRPV [NFKBIB]”, the figures for the thermal stability score in the data set with HeLa Kyoto [1] (setting [5]) and in the data set on HeLa Kyoto [1] (cell cycle stage: mitosis) were 0.217 and 0.0879, respectively. Also, the “solubility change mitosis (log2)” value in the data set with HeLa Kyoto [2] is -0.224. In addition, the melting temperature was 49.3 °C in the data set on HeLa Kyoto [3] (cell cycle stage: G1/S) and 50 °C in the data set on HeLa Kyoto [3] (cell cycle stage: mitosis). Besides, the “solubility in G1/S (log2)” value in the data set with HeLa Kyoto [4] amounted to 0.533.

For the sequence “MAGVEEVAASGSHLNGDLDPDDREEGAASTAEEAAKKKRRKKKKSKGPSAAGEQEPDKESGASVDEVARQLERSALEDKERDEDDEDGDGDGDGATGKKKKKKKKKRGPKVQTDPPSVPICDLYPNGVFPKGQECEYPPTQDGRTAAWRTTSEEKKALDQASEEIWNDFREAAEAHRQVRKYVMSWIKPGMTMIEICEKLEDCSRKLIKENGLNAGLAFPTGCSLNNCAAHYTPNAGDTTVLQYDDICKIDFGTHISGRIIDCAFTVTFNPKYDTLLKAVKDATNTGIKCAGIDVRLCDVGEAIQEVMESYEVEIDGKTYQVKPIRNLNGHSIGQYRIHAGKTVPIVKGGEATRMEEGEVYAIETFGSTGKGVVHDDMECSHYMKNFDVGHVPIRLPRTKHLLNVINENFGTLAFCRRWLDRLGESKYLMALKNLCDLGIVDPYPPLCDIKGSYTAQFEHTILLRPTCKEVVSRGDDY [METAP2]”, the results for the thermal stability score with HeLa Kyoto [1] (setting [5]) and in the data set with HeLa Kyoto [1] (cell cycle stage: mitosis) were -2.19 and -2.92, respectively. Further, the “solubility change mitosis (log2)” value in the data set on HeLa Kyoto [2] is -0.0109. Further, the melting temperature was found to be 58.1 °C with HeLa Kyoto [3] (cell cycle stage: G1/S) and 57 °C in the data set on HeLa Kyoto [3] (cell cycle stage: mitosis). The “solubility in G1/S (log2)” value in the data set with HeLa Kyoto [4] was -0.0489.

Consider “MAHSKTRTNDGKITYPPGVKEISDKISKEEMVRRLKMVVKTFMDMDQDSEEEKELYLNLALHLASDFFLKHPDKDVRLLVACCLADIFRIYAPEAPYTSPDKLKDIFMFITRQLKGLEDTKSPQFNRYFYLLENIAWVKSYNICFELEDSNEIFTQLYRTLFSVINNGHNQKVHMHMVDLMSSIICEGDTVSQELLDTVLVNLVPAHKNLNKQAYDLAKALLKRTAQAIEPYITNFFNQVLMLGKTSISDLSEHVFDLILELYNIDSHLLLSVLPQLEFKLKSNDNEERLQVVKLLAKMFGAKDSELASQNKPLWQCYLGRFNDIHVPIRLECVKFASHCLMNHPDLAKDLTEYLKVRSHDPEEAIRHDVIVSIVTAAKKDILLVNDHLLNFVRERTLDKRWRVRKEAMMGLAQIYKKYALQSAAGKDAAKQIAWIKDKLLHIYYQNSIDDRLLVERIFAQYMVPHNLETTERMKCLYYLYATLDLNAVKALNEMWKCQNLLRHQVKDLLDLIKQPKTDASVKAIFSKVMVITRNLPDPGKAQDFMKKFTQVLEDDEKIRKQLEVLVSPTCSCKQAEGCVREITKKLGNPKQPTNPFLEMIKFLLERIAPVHIDTESISALIKQVNKSIDGTADDEDEGVPTDQAIRAGLELLKVLSFTHPISFHSAETFESLLACLKMDDEKVAEAALQIFKNTGSKIEEDFPHIRSALLPVLHHKSKKGPPRQAKYAIHCIHAIFSSKETQFAQIFEPLHKSLDPSNLEHLITPLVTIGHIALLAPDQFAAPLKSLVATFIVKDLLMNDRLPGKKTTKLWVPDEEVSPETMVKIQAIKMMVRWLLGMKNNHSKSGTSTLRLLTTILHSDGDLTEQGKISKPDMSRLRLAAGSAIVKLAQEPCYHEIITLEQYQLCALAINDECYQVRQVFAQKLHKGLSRLRLPLEYMAICALCAKDPVKERRAHARQCLVKNINVRREYLKQHAAVSEKLLSLLPEYVVPYTIHLLAHDPDYVKVQDIEQLKDVKECLWFVLEILMAKNENNSHAFIRKMVENIKQTKDAQGPDDAKMNEKLYTVCDVAMNIIMSKSTTYSLESPKDPVLPARFFTQPDKNFSNTKNYLPPEMKSFFTPGKPKTTNVLGAVNKPLSSAGKQSQTKSSRMETVSNASSSSNPSSPGRIKGRLDSSEMDHSENEDYTMSSPLPGKKSDKRDDSDLVRSELEKPRGRKKTPVTEQEEKLGMDDLTKLVQEQKPKGSQRSRKRGHTASESDEQQWPEEKRLKEDILENEDEQNSPPKKGKRGRPPKPLGGGTPKEEPTMKTSKKGSKKKSGPPAPEEEEEEERQSGNTEQKSKSKQHRVSRRAQQRAESPESSAIESTQSTPQKGRGRPSKTPSPSQPKKNVRVGRSKQAATKENDSSEEVDVFQGSSPVDDIPQEETEEEEVSTVNVRRRSAKRERR [PDS5B]”, for which the thermal stability score in the data set with HeLa Kyoto [1] (setting [5]) is -0.564; with HeLa Kyoto [1] (cell cycle stage: mitosis), 0.534. The “solubility change mitosis (log2)” value with HeLa Kyoto [2] came out at 0.216. Also, the melting temperature with HeLa Kyoto [3] (cell cycle stage: G1/S) was determined as 49.2 °C; with HeLa Kyoto [3] (cell cycle stage: mitosis), 49.4 °C. Moreover, the “solubility in G1/S (log2)” value in the data set on HeLa Kyoto [4] is -0.302.

For “MAHVGSRKRSRSRSRSRGRGSEKRKKKSRKDTSRNCSASTSQGRKASTAPGAEASPSPCITERSKQKARRRTRSSSSSSSSSSSSSSSSSSSSSSSSSDGRKKRGKYKDKRRKKKKKRKKLKKKGKEKAEAQQVEALPGPSLDQWHRSAGEEEDGPVLTDEQKSRIQAMKPMTKEEWDARQSIIRKVVDPETGRTRLIKGDGEVLEEIVTKERHREINKQATRGDCLAFQMRAGLLP [ARL6IP4]”, the thermal stability score was -1.78 in the data set on HeLa Kyoto [1] (setting [5]) and -3.1 in the data set on HeLa Kyoto [1] (cell cycle stage: mitosis). In the data set on HeLa Kyoto [2], the “solubility change mitosis (log2)” value was 0.853. For the same sequence, the melting temperature worked out at 52.6 °C in the data set with HeLa Kyoto [3] (cell cycle stage: G1/S) and 52 °C in the data set on HeLa Kyoto [3] (cell cycle stage: mitosis). Besides, the “solubility in G1/S (log2)” value in the data set with HeLa Kyoto [4] is -0.997.
